Laboratory results as given in patent KR20190006154A.

Target: FMDV O1 Manisa (Foot and Mouth Disease Virus serotype O)
Assay: indirect ELISA, inactivated FMDV coated, hybridoma supernatant

B1: 4B14 (antibody, V domains shown)
VH: EVQLQQSGPEVVKPGASVKMSCKASGYSFTGYYMNWVKQSHVKSLEWIGRINPDNGATNYNQNVKDKASLTVDKSSNTAYMELHSLTSEDSAVYYCARWLLSPYVMDYWGQGTSVTVSS
VL: DIVLTQSPASLAVSLGQRATISYRASKSVSTSGYSYMHWNQQKPGQPPRLLIYLVSNLESGVPARFSGSGSGTDFTLNIHPVEEEDAATYYCQHIRELTRSEGGPSW
- O.D (450nm) in ELISA screening plate: 2.31 O.D (450nm)

B2: 7F32 (antibody, V domains shown)
VH: EVQLVESGGDLVKPGGSLKLSCAASGFTFSNYGMSWGRQTPDKRLEWVATISSGGSYTYYPDSLKGRFTISRDNAKNTLYLQMTSLKSEDTAMYYCSSPYYDSSYDYSLDYWGQGTSVTVSS
VL: DIVLTQSPASLAVSLGQRATISYRASKSVSTSGYSYMHWNQQKPGQPPRLLIYLVSNLESGVPARFSGSGSGTDFTLNIHPVEEEDAATYYCQHIRELTRSEGGPSW
- O.D (450nm) in ELISA screening plate: 0.91 O.D (450nm)
